Data reported in patent US20240301023A1.

Legend:
[1] = biological target: Mu opioid receptor (MOR); assay: cell-based or functional assay
[2] = biological target: Kappa opioid receptor (KOR) (Homo sapiens (Human)) (UniProt P41145); assay: cell-based or functional assay
[3] = biological target: Delta opioid receptor (DOR); assay: cell-based or functional assay
[4] = biological target: Kappa opioid receptor (KOR) (Homo sapiens (Human)) (UniProt P41145); assay: HTRF Tag-Lite KOP ligand binding assay; competition against naltrindole (8 nM); Ki relative to Kd of naltrindole
[5] = biological target: Kappa opioid receptor (KOR) (Homo sapiens (Human)) (UniProt P41145); assay: HTRF Tag-Lite KOP ligand binding assay; competition against naltrindole (8 nM)

Row | Activity (EC50, nM), cAMP assay [2] [nM] | Ki [4] [nM] | IC50 [5] [nM] | Log IC50 [5] | cAMP assay (ALPHAScreen), result at 1 µM peptide [2] | cAMP assay (ALPHAScreen), result at 10 µM peptide [2] | Substance | Activity (EC50, nM), cAMP assay [1] [nM] | Activity (EC50, nM), cAMP assay [3] [nM] | KOPr desensitisation in HEK293-KOPr cells: reduction in maximal cAMP response after 6 h pretreatment at 1 µM [2] [%]
1 | 8.4 | 2.8 | 30.2 | -7.52 | 34.9 | 40.3 | SEQ ID NO. 4: NH2-Tyr-Sar-(4-NO2)Phe-Leu-Arg-DArg-NH2 (peptide) |  |  | 
2 | 1.77 |  |  |  |  |  | SEQ ID NO. 18: NH2-Tyr-Sar-(4-NO2)Phe-Leu-Arg-NMA-NH2 (peptide) |  |  | 
3 | 31.1 | 180 | 1950 | -5.71 |  |  | SEQ ID NO. 19: NH2-Tyr-Sar-(4-NO2)Phe-Leu-NMA-NMA-NH2 (peptide) |  |  | 
4 |  |  |  |  |  |  | SEQ ID NO. 20: NH2-Tyr-Sar-(4-Cl)Phe-Leu-Arg-DArg-Ile-Arg-NH2 (peptide) |  |  | 50
5 | 3.87 | 6.7 | 72.6 | -7.14 |  |  | SEQ ID NO. 24: NH2-Tyr-Sar-(4-Cl)Phe-Leu-Arg-DArg-C7H14-CONH2 (peptide) |  |  | 

Row | Substance | Activity (EC50, nM), cAMP assay [2] [nM] | Ki [4] [nM] | IC50 [5] [nM] | Log IC50 [5] | cAMP assay (ALPHAScreen), result at 1 µM peptide [2] | cAMP assay (ALPHAScreen), result at 10 µM peptide [2] | Activity (EC50, nM), cAMP assay [1] [nM] | Activity (EC50, nM), cAMP assay [3] [nM] | KOPr desensitisation in HEK293-KOPr cells: reduction in maximal cAMP response after 6 h pretreatment at 1 µM [2] [%]
6 | Dyn1-7 (SEQ ID NO. 38: Tyr-Gly-Gly-Phe-Leu-Arg-Arg) (peptide) | 1600 |  |  |  |  |  | 3740 | 870 | 
